Assay results taken from paper doi:10.1101/2023.11.02.565302.

Target: ligand-binding domain (LBD) of rat GluK1 (rat)
Assay: crystal structure

stoichiometry N: 2
Substance: ligand-binding domain (LBD) of rat GluK1 (domain or fragment)
